From US20250145729A1 (DENALI THERAPEUTICS, published 2025)
Numbering of substitutions follows the chain as printed. In names and notes the source's numbering stands.

T1: circularly permuted human TfR apical domain (human)
T1 construct: TfR residues 326-379 stand N-terminal to 194-296, loop 297-325 deleted; also called huTfR Apical Domain
T1 chain: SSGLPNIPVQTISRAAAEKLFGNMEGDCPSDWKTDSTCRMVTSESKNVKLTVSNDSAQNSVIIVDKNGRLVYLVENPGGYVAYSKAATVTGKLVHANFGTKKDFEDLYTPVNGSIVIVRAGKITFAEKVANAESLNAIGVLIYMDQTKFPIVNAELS

T2: circularly permuted cyno TfR apical domain (cynomolgus monkey)
T2 construct: same design as the human construct; also called cyTfR Apical Domain; cynomolgus TfR apical domain
T2 chain: T1 chain with R39K, S45N, N47S, R69G, Y108D, T109S, N153K, E155D

B1: 42.8.216 (Fc fusion)
chain: APEAAGGPSVFLFPPKPKDTLMISRTPEVTCVVVDVSHEDPEVKFNWYVDGVEVHNAKTKPREEQYNSTYRVVSVLTVLHQDWLNGKEYKCKVSNKALGAPIEKTISKAKGQPREPQVYTLPPSRDELTKNQVSLTCLVKGFYPSDIAVEWFYEDSKLSNYKTTPPVLDSDGSFFLYSKLTVDKSRWQQGNLFACEVMHEALHNHYTYKLLSLSPGK
notes: bivalent; P329G+LALA
B2: 42.8.188 (Fc fusion)
chain: B1 chain with D155G, L158E, S159T
notes: bivalent; P329G+LALA
B3: 42.2.19 (Fc fusion)
chain: B1 chain with E154D, S159T, Q189P, G190R, N191G, S212G, L213E
notes: P329G+LALA
B4: 42.8.203 (Fc fusion)
chain: B1 chain with D155A, S159T
notes: bivalent; P329G+LALA
B5: 42.8.191 (Fc fusion)
chain: B1 chain with D155G, S159T
notes: bivalent; P329G+LALA
B6: 42.8.140 (Fc fusion)
chain: B1 chain with E154G, L158E, S159T
notes: bivalent; P329G+LALA
B7: 42.8.10 (Fc fusion)
chain: B1 chain with Y153S, E154G, D155G, S159N
notes: bivalent; P329G+LALA
B8: 42.8.129 (Fc fusion)
chain: B1 chain with E154G, D155A, L158E
notes: bivalent; P329G+LALA
B9: 42.8.215 (Fc fusion)
chain: B1 chain with S159T
notes: bivalent; P329G+LALA
B10: 42.8.80 (Fc fusion)
chain: B1 chain with Y153S, D155G, L158E, S159T
notes: bivalent; P329G+LALA
B11: 42.8.161 (Fc fusion)
chain: B1 chain with E154D, D155A, S156Q, S159T
notes: bivalent; P329G+LALA
B12: 42.8.164 (Fc fusion)
chain: B1 chain with E154D, D155A, L158E, S159T
notes: bivalent; P329G+LALA
B13: 42.8.160 (Fc fusion)
chain: B1 chain with E154D, D155A, S156Q, S159N
notes: bivalent; P329G+LALA
B14: 42.8.211 (Fc fusion)
chain: B1 chain with L158E, S159N
notes: bivalent; P329G+LALA
B15: 42.2.1-20 (Fc fusion)
chain: B1 chain with Y153A, E154D, D155A, L158Q, S159R
notes: P329G+LALA
B16: 42.8.196 (Fc fusion)
chain: B1 chain with D155A, S156Q, S159N
notes: bivalent; P329G+LALA
B17: 42.8.165 (Fc fusion)
chain: B1 chain with E154D, D155A, L158E
notes: bivalent; P329G+LALA
B18: 42.8.93 (Fc fusion)
chain: B1 chain with Y153S, D155A, L158E
notes: bivalent; P329G+LALA
B19: 42.8.78 (Fc fusion)
chain: B1 chain with Y153S, D155G, S156Q
notes: bivalent; P329G+LALA
B20: 42.8.147 (Fc fusion)
chain: B1 chain with E154D, D155G, S156Q, L158E
notes: bivalent; P329G+LALA
B21: 42.8.111 (Fc fusion)
chain: B1 chain with E154G, D155G, S156Q, L158E
notes: bivalent; P329G+LALA
B22: 42.2.3-5 (Fc fusion)
chain: B1 chain with E154G, D155N, S156G, L158E, S159T
notes: P329G+LALA
B23: 42.8.186 (Fc fusion)
chain: B1 chain with D155G, S156Q
notes: bivalent; P329G+LALA
B24: 42.8.9 (Fc fusion)
chain: B1 chain with Y153S, E154G, D155G, L158E
notes: bivalent; P329G+LALA
B25: 42.8.145 (Fc fusion)
chain: B1 chain with E154D, D155G, S156Q, L158E, S159N
notes: bivalent; P329G+LALA
B26: 42.8.65 (Fc fusion)
chain: B1 chain with Y153S, E154D, S156Q, S159T
notes: bivalent; P329G+LALA
B27: 42.8.79 (Fc fusion)
chain: B1 chain with Y153S, D155G, L158E, S159N
notes: bivalent; P329G+LALA
B28: 42.8.205 (Fc fusion)
chain: B1 chain with S156Q, L158E, S159N
notes: bivalent; P329G+LALA
B29: 42.8.142 (Fc fusion)
chain: B1 chain with E154G, S159N
notes: bivalent; P329G+LALA
B30: 42.8.134 (Fc fusion)
chain: B1 chain with E154G, S156Q, L158E, S159T
notes: bivalent; P329G+LALA
B31: 42.8.122 (Fc fusion)
chain: B1 chain with E154G, D155A, S156Q, L158E, S159T
notes: bivalent; P329G+LALA
B32: 42.2 (Fc fusion)
chain: B1 chain with Y153S, E154D, D155G, L158E, S159T
notes: bivalent; P329G+LALA; also called 6.5.11.5.42.2
B33: 42.8.214 (Fc fusion)
chain: B1 chain with S159N
notes: bivalent; P329G+LALA
B34: 42.8.180 (Fc fusion)
chain: B1 chain with E154D
notes: bivalent; P329G+LALA
B35: 42.8.190 (Fc fusion)
chain: B1 chain with D155G, S159N
notes: bivalent; P329G+LALA
B36: 42.8.193 (Fc fusion)
chain: B1 chain with D155A, S156Q, L158E, S159N
notes: bivalent; P329G+LALA
B37: 42.8.72 (Fc fusion)
chain: B1 chain with Y153S, E154D
notes: bivalent; P329G+LALA
B38: 42.8.176 (Fc fusion)
chain: B1 chain with E154D, L158E, S159T
notes: bivalent; P329G+LALA
B39: 42.8.198 (Fc fusion)
chain: B1 chain with D155A, S156Q
notes: bivalent; P329G+LALA
B40: 42.8.209 (Fc fusion)
chain: B1 chain with S156Q, S159T
notes: bivalent; P329G+LALA
B41: 42.8.15 (Fc fusion)
chain: B1 chain with Y153S, E154G, D155A, S156Q, L158E
notes: bivalent; P329G+LALA
B42: 42.8.206 (Fc fusion)
chain: B1 chain with S156Q, L158E, S159T
notes: bivalent; P329G+LALA
B43: 42.8.170 (Fc fusion)
chain: B1 chain with E154D, S156Q, L158E, S159T
notes: bivalent; P329G+LALA
B44: 42.8.200 (Fc fusion)
chain: B1 chain with D155A, L158E, S159T
notes: bivalent; P329G+LALA

Molecular target: T1, circularly permuted human TfR apical …
Assay: SPR, supernatant, anti-Fab capture
Method: (§1) Clones were expressed in HEK293 cells. Supernatants were captured for SPR by GE Healthcare anti-human Fab capture kit and the affinity to human and cyno TfR apical domain was measured (Table 30). The clones in Table 30 were bivalent and each TfR-binding Fc polypeptide also contained P329G and LALA mutations.

Row | Kd [µM] | Binder
1 | 0.421 | B1
2 | 1.03 | B2
3 | 0.08 | B3
4 | 0.394 | B4
5 | 0.598 | B5
6 | 0.664 | B6
7 | 3.76 | B7
8 | 0.858 | B8
9 | 0.293 | B9
10 | 2.38 | B10
11 | 1.14 | B11
12 | 0.832 | B12
13 | 1.05 | B13
14 | 0.966 | B14
15 | 0.44 | B15
16 | 0.924 | B16
17 | 1.03 | B17
18 | 5 | B18
19 | 0.972 | B19
20 | 3.51 | B20
21 | 1.88 | B21
22 | 0.26 | B22

Row | Kd [µM] | Binder
23 | 2.05 | B23
24 | 1.85 | B24
25 | 1.01 | B25
26 | 3.94 | B26
27 | 3.07 | B27
28 | 1.13 | B28
29 | 0.665 | B29
30 | 1.24 | B30
31 | 3.91 | B31
32 | 1 | B32
33 | 0.427 | B33
34 | 0.705 | B34
35 | 1.31 | B35
36 | 1.6 | B36
37 | 2.71 | B37
38 | 0.613 | B38
39 | 0.841 | B39
40 | 0.38 | B40
41 | 5.96 | B41
42 | 0.827 | B42
43 | 1.15 | B43
44 | 0.505 | B44

Molecular target: T2, circularly permuted cyno TfR apical …
Assay: SPR, supernatant, anti-Fab capture
Method: as §1

Row | Kd [µM] | Binder
45 | 5.85 | B1
46 | 12.5 | B2
47 | 1 | B3
48 | 5.46 | B4
49 | 8.14 | B5
50 | 5.23 | B6
51 | 11.1 | B7
52 | 3.14 | B8
53 | 4.94 | B9
54 | 13.6 | B10
55 | 10.5 | B11
56 | 7.45 | B12
57 | 11.6 | B13
58 | 10.7 | B14
59 | 7 | B15
60 | 9.34 | B16
61 | 4.46 | B17
62 | 17.6 | B18
63 | 6.74 | B19
64 | 8.03 | B20
65 | 19.1 | B21
66 | 1.8 | B22

Row | Kd [µM] | Binder
67 | 22.2 | B23
68 | 14.3 | B24
69 | 11.4 | B25
70 | 10.3 | B26
71 | 28.6 | B27
72 | 11.4 | B28
73 | 4.63 | B29
74 | 13.2 | B30
75 | 9.84 | B31
76 | 7.5 | B32
77 | 6.09 | B33
78 | 7.91 | B34
79 | 9.78 | B35
80 | 13.3 | B36
81 | 13.4 | B37
82 | 9.78 | B38
83 | 12.2 | B39
84 | 6.03 | B40
85 | 27 | B41
86 | 10.8 | B42
87 | 11.9 | B43
88 | 6.21 | B44
